In the supplement of paper PMC10724198:
± gives the standard deviation of the averaged measurements.

What was measured:
Saccharomyces cerevisiae [1] = assay: protein stability index of tFT-peptide fusion (C-terminal peptide) (PSI (0-1 scale)); higher = more stable (slower turnover)
Procedure: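 MPS profiling in S. cerevisiae of the tFT-X12 degron library: putative degron peptides plus stable controls, 12 aa, fused to the C-terminus of a sfGFP-mCherry timer. Cells are FACS-sorted into 8 mCherry/sfGFP bins and deep-sequenced. PSI runs from 0 (unstable) to 1 (stable). Backgrounds are wild type, das1Δ and doa10Δ at 30 °C, and wild type, das1Δ, cdc34-1 and cdc53-1 at 37 °C; 2-3 technical replicates each.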

Saccharomyces cerevisiae [2] = assay: as above; details: genetic background: wild type; temperature: 30 C
[3] = genetic background: cdc34-1, temperature: 37 C
[4] = genetic background: cdc53-1, temperature: 37 C
[5] = genetic background: das1 deletion, temperature: 30 C
[6] = genetic background: das1 deletion, temperature: 37 C
[7] = genetic background: doa10 deletion, temperature: 30 C
[8] = genetic background: wild type, temperature: 30 C
[9] = genetic background: wild type, temperature: 37 C
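Further: PSI is a weighted mean of sequencing reads over stability bins, variants kept only with over 10 reads, mCherry proximal and sfGFP distal, peptide attached via GGGS linker.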

Sequence	protein stability index (Saccharomyces cerevisiae [1]; [3])	protein stability index (Saccharomyces cerevisiae [1]; [4])	protein stability index (Saccharomyces cerevisiae [1]; [5])	protein stability index (Saccharomyces cerevisiae [1]; [6])	protein stability index (Saccharomyces cerevisiae [1]; [7])	protein stability index (Saccharomyces cerevisiae [1]; [8])	protein stability index (Saccharomyces cerevisiae [1]; [9])	protein stability index (Saccharomyces cerevisiae [2])
SWGRGADRWRRA	0.645 ± 0.042	0.7218 ± 0.0025	0.649 ± 0.017	0.7267 ± 0.0056	0.156 ± 0.019	0.195 ± 0.016	0.4725 ± 0.0013	0.319 ± 0.056
SYWNSSPKCGNW	0.712 ± 0.064	0.76 ± 0.022	0.667 ± 0.021	0.7705 ± 0.0011	0.664 ± 0.039	0.681 ± 0.018	0.746 ± 0.011	0.744 ± 0.0092
TCRLIQLTVTLH	0.3115 ± 0.0026	0.3774 ± 0.001	0.257 ± 0.038	0.458 ± 0.0051	0.232 ± 0.0034	0.253 ± 0.018	0.4071 ± 0.0036	0.386 ± 0.053
TCVVCSCVLQCV	0.47 ± 0.041	0.491 ± 0.02	0.307 ± 0.023	0.49 ± 0.0051	0.305 ± 0.027	0.324 ± 0.028	0.4641 ± 0.0042	0.362 ± 0.04
TLCHLTLICVRE	0.221 ± 0.0099	0.253 ± 0.018	0.226 ± 0.019	0.358 ± 0.011	0.1767 ± 0.00029	0.21 ± 0.018	0.336 ± 0.012	0.382 ± 0.027
TLVFPRFLFLVV	0.348 ± 0.02	0.365 ± 0.019	0.393 ± 0.031	0.493 ± 0.023	0.518 ± 0.011	0.363 ± 0.028	0.432 ± 0.0083	0.452 ± 0.066
TNHRVRHWILRV	0.665 ± 0.013	0.721 ± 0.0099	0.609 ± 0.024	0.713 ± 0.02	0.253 ± 0.022	0.301 ± 0.019	0.517 ± 0.0083	0.396 ± 0.031
TPLLPPSPPPSR	0.647 ± 0.02		0.27 ± 0.02	0.46 ± 0.0089	0.244 ± 0.0028	0.277 ± 0.017	0.4348 ± 0.0042	0.3328 ± 0.0026
TRPHPLRRVFIF	0.669 ± 0.034	0.725 ± 0.013	0.643 ± 0.0072	0.735 ± 0.013	0.226 ± 0.013	0.23 ± 0.038	0.433 ± 0.041	0.293 ± 0.026
TRSLLFANRCIV	0.66 ± 0.047	0.706 ± 0.033	0.619 ± 0.017	0.737 ± 0.0079	0.269 ± 0.0075	0.304 ± 0.025	0.503 ± 0.009	0.396 ± 0.014
TVCSWSALSRFM	0.691 ± 0.042	0.7558 ± 0.0062	0.6449 ± 0.0016	0.76419 ± 0.00033	0.631 ± 0.032	0.627 ± 0.015	0.705 ± 0.0097	0.587 ± 0.15
TVILVLFPSPFL	0.589 ± 0.036	0.679 ± 0.012	0.472 ± 0.037	0.671 ± 0.023	0.448 ± 0.014	0.484 ± 0.01	0.597 ± 0.017	0.51 ± 0.021
VAFFSVFYWLEC	0.287 ± 0.069	0.424 ± 0.066	0.299 ± 0.021	0.47 ± 0.033	0.261 ± 0.0032	0.29 ± 0.034	0.454 ± 0.018	0.365 ± 0.023
VARRRQQWMRGS	0.517 ± 0.066	0.56 ± 0.034	0.5261 ± 0.003	0.54643 ± 0.00042	0.529 ± 0.0063	0.516 ± 0.025	0.5449 ± 0.004	0.517 ± 0.041
VCAFCLFFVPLP	0.5888 ± 0.00072	0.668 ± 0.023	0.425 ± 0.038	0.6497 ± 0.0021	0.3831 ± 0.0035	0.413 ± 0.022	0.593 ± 0.012	0.47 ± 0.013
VCFWCLYVMFSL	0.46 ± 0.043	0.494 ± 0.01	0.383 ± 0.019	0.463 ± 0.0068	0.372 ± 0.0057	0.363 ± 0.021	0.471 ± 0.022	0.418 ± 0.018
VCIPLLVIRFLV	0.098 ± 0.013	0.182 ± 0.014	0.234 ± 0.022	0.386 ± 0.029	0.0616 ± 0.019	0.0599 ± 0.014	0.0485 ± 0.00051	0.109 ± 0.0095
VCLFSVCLWFVS	0.0838 ± 0.025	0.219 ± 0.062	0.16 ± 0.026	0.313 ± 0.011	0.124 ± 0.0088	0.141 ± 0.015	0.227 ± 0.013	0.21 ± 0.044
VCLLVSVCLLWL	0.172 ± 0.0043	0.244 ± 0.047	0.21 ± 0.013	0.329 ± 0.021	0.18 ± 0.023	0.192 ± 0.025	0.309 ± 0.016	0.252 ± 0.015
VCLVFLFQFVLI	0.482 ± 0.094	0.507 ± 0.029	0.406 ± 0.023	0.517 ± 0.0061	0.442 ± 0.028	0.41 ± 0.0094	0.491 ± 0.01	0.481 ± 0.011

Sequence	protein stability index (Saccharomyces cerevisiae [1]; [3])	protein stability index (Saccharomyces cerevisiae [1]; [4])	protein stability index (Saccharomyces cerevisiae [1]; [5])	protein stability index (Saccharomyces cerevisiae [1]; [6])	protein stability index (Saccharomyces cerevisiae [1]; [7])	protein stability index (Saccharomyces cerevisiae [1]; [8])	protein stability index (Saccharomyces cerevisiae [1]; [9])	protein stability index (Saccharomyces cerevisiae [2])
VCMVLCRWRGLG	0.601 ± 0.028	0.704 ± 0.0075	0.6061 ± 0.0028	0.6993 ± 0.0046	0.219 ± 0.011	0.234 ± 0.038	0.443 ± 0.026	0.331 ± 0.01
VCRCFPVCLFSF	0.6178 ± 0.0049	0.692 ± 0.014	0.523 ± 0.023	0.706 ± 0.027	0.294 ± 0.0057	0.341 ± 0.029	0.519 ± 0.02	0.413 ± 0.031
VCVRLVHCLVLV	0.2359 ± 0.0019	0.2514 ± 0.0021	0.208 ± 0.02	0.332 ± 0.0068	0.177 ± 0.01	0.174 ± 0.017	0.283 ± 0.014	0.265 ± 0.031
VFCCHSSRFVFA	0.642 ± 0.027	0.6789 ± 0.0065	0.525 ± 0.025	0.6858 ± 0.0031	0.49 ± 0.016	0.501 ± 0.028	0.623 ± 0.019	0.414 ± 0.022
VFCFCRFHFFCA	0.621 ± 0.066	0.649 ± 0.0077	0.496 ± 0.025	0.631 ± 0.026	0.432 ± 0.019	0.453 ± 0.02	0.563 ± 0.018	0.484 ± 0.026
VFFFVSFFAFSS	0.213 ± 0.0054	0.3558 ± 0.0034	0.22 ± 0.029	0.406 ± 0.0024	0.172 ± 0.016	0.179 ± 0.04	0.3544 ± 0.0014	0.288 ± 0.053
VFFLSFIFRFFL	0.594 ± 0.022	0.558 ± 0.02	0.508 ± 0.035	0.547 ± 0.013	0.482 ± 0.021	0.454 ± 0.0048	0.55 ± 0.087	0.532 ± 0.048
VFFPCRLLPLLF	0.517 ± 0.0066	0.585 ± 0.0073	0.479 ± 0.03	0.595 ± 0.026	0.1658 ± 0.0011	0.167 ± 0.014	0.286 ± 0.01	0.27 ± 0.023
VFFRVLVAGCRQ	0.537 ± 0.04	0.618 ± 0.021	0.451 ± 0.022	0.5761 ± 0.0052	0.449 ± 0.0066	0.468 ± 0.0052	0.568 ± 0.028	0.522 ± 0.084
VFGCHHLEVSVC	0.248 ± 0.012	0.267 ± 0.0036	0.259 ± 0.034	0.377 ± 0.0065	0.203 ± 0.012	0.241 ± 0.024	0.34 ± 0.012	0.34 ± 0.0065
VFGVWVVVGCVG	0.028 ± 0.007	0.101 ± 0.03	0.149 ± 0.037	0.215 ± 0.01	0.123 ± 0.019	0.143 ± 0.013	0.197 ± 0.013	0.248 ± 0.0043
VFRECSFFLVCC	0.255 ± 0.0076	0.287 ± 0.011	0.281 ± 0.026	0.366 ± 0.0094	0.224 ± 0.0033	0.252 ± 0.032	0.315 ± 0.016	0.333 ± 0.036
VFRHFYTFLALC	0.338 ± 0.043	0.414 ± 0.013	0.472 ± 0.014	0.5932 ± 0.0029	0.111 ± 0.0013	0.0988 ± 0.017	0.132 ± 0.018	0.16 ± 0.0087
VFTGYSAFLLLC	0.325 ± 0.011	0.578 ± 0.025	0.487 ± 0.025	0.6366 ± 0.0041	0.0796 ± 0.016	0.0748 ± 0.014	0.0721 ± 0.0049	0.144 ± 0.011
VGASLVVIAIGV	0.5122 ± 0.0012	0.5401 ± 0.0048	0.377 ± 0.034	0.5445 ± 0.0033	0.3442 ± 0.0029	0.387 ± 0.012	0.5181 ± 0.0048	0.466 ± 0.032
VGKGAGVRDGSR	0.693 ± 0.068	0.751 ± 0.019	0.623 ± 0.0077	0.7598 ± 0.0072	0.651 ± 0.017	0.645 ± 0.011	0.713 ± 0.016	0.707 ± 0.026
VGLLFGWVWSLW	0.644 ± 0.02	0.72401 ± 0.00029	0.56 ± 0.026	0.6999 ± 0.0055	0.5556 ± 0.0007	0.545 ± 0.0096	0.674 ± 0.015	0.485 ± 0.021
VGLWFLCSLAFS	0.444 ± 0.0079	0.478 ± 0.015	0.34 ± 0.037	0.5344 ± 0.0014	0.308 ± 0.015	0.346 ± 0.023	0.495 ± 0.007	0.401 ± 0.006
VGYSLFTFLFCA	0.579 ± 0.014	0.6313 ± 0.0052	0.481 ± 0.03	0.6315 ± 0.0016	0.303 ± 0.011	0.335 ± 0.017	0.51 ± 0.027	0.432 ± 0.0057
